# Measurements: PMC2756588
# T1: Abp1, P15891
# T1 sequence (P15891 535-592, looked up): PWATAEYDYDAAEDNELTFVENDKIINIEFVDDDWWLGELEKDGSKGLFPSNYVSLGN
# T2: Bbc1, P47068
# T2 sequence (P47068 1-78, looked up): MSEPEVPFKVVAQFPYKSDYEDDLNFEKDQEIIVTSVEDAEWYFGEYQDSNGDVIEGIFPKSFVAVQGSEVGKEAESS
# T3: Boi1, P38041
# T3 sequence (P38041 1-86, looked up): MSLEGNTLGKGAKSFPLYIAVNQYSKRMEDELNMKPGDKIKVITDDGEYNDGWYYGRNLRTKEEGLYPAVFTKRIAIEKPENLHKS
# T4: Boi2, P39969
# T4 sequence (P39969 32-116, looked up): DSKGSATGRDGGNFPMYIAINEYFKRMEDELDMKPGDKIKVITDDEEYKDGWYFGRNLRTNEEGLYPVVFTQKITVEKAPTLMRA
# T5: Bud14, P27637
# T5 sequence (P27637 247-328, looked up): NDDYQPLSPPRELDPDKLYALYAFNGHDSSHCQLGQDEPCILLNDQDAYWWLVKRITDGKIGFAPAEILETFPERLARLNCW
# T6: Bzz1-1, P38822
# T6 sequence (P38822 478-572, looked up): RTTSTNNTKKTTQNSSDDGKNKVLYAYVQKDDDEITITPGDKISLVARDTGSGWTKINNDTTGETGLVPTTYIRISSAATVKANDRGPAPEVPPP
# T7: Bzz1-2, P38822
# T7 sequence (P38822 568-633, looked up): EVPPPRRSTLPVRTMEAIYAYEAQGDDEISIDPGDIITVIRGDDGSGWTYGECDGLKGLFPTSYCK
# T8: Cdc25, P04821
# T8 sequence (P04821 50-136, looked up): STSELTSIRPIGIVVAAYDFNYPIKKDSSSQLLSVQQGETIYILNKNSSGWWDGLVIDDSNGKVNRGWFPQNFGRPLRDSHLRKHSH
# T9: Cyk3, Q07533
# T9 sequence (Q07533 1-83, looked up): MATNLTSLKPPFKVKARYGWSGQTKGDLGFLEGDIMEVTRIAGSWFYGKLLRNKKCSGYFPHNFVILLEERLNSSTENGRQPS
# T10: Fus1, P11710
# T10 sequence (P11710 432-512, looked up): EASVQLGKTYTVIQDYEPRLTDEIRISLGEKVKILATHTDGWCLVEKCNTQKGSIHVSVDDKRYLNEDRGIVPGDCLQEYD
# T11: Hof1, Q05080
# T11 sequence (Q05080 590-669, looked up): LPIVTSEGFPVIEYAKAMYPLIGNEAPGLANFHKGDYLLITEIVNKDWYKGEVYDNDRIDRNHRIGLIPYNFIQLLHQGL
# T12: Hse1, P38753
# T12 sequence (P38753 208-285, looked up): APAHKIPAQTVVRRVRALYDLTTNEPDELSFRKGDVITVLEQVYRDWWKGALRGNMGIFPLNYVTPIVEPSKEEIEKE
# T13: Lsb1, P53281
# T13 sequence (P53281 45-122, looked up): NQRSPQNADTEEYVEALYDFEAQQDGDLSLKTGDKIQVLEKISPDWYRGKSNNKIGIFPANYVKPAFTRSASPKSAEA
# T14: Lsb3, P43603
# T14 sequence (P43603 385-451, looked up): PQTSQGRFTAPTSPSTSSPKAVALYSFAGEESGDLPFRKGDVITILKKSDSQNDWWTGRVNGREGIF
# T15: Lsb4, P32793
# T15 sequence (P32793 402-468, looked up): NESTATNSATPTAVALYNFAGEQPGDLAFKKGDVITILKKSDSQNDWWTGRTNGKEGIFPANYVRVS
# T16: Myo5, Q04439
# T16 sequence (Q04439 1072-1160, looked up): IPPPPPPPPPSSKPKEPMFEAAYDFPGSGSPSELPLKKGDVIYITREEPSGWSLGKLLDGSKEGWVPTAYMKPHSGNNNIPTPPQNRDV
# T17: Nbp2, Q12163
# T17 sequence (Q12163 103-180, looked up): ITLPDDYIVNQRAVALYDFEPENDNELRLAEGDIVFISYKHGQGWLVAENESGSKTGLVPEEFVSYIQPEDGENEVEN
# T18: Pex13, P80667
# T18 sequence (P80667 295-386, looked up): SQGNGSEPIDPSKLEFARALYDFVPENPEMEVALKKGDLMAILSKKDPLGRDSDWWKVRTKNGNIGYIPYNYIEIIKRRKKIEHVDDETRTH
# T19: Pin3, Q06449
# T19 sequence (Q06449 53-122, looked up): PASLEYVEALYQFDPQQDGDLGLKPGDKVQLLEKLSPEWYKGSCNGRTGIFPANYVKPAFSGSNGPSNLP
# T20: Sla1-2, P32790
# T20 sequence (P32790 60-140, looked up): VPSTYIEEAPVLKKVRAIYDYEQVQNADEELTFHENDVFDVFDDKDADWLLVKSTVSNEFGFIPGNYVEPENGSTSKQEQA
# T21: Sla1-3, P32790
# T21 sequence (P32790 344-424, looked up): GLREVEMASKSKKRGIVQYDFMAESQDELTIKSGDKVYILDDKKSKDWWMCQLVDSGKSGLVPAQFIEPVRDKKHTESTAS
# Target: T1, Abp1, P15891
# Experiment: SPOT array
# Settings: median of control spots 935
row,SPOT intensity,Binder
1,125,QLLNPNRRAPRRPLS
2,92,LEFRAILFIPKRAPF
3,0,PELAPKREAPKPPAN

# Target: T2, Bbc1, P47068
# Experiment: SPOT array
# Settings: median of control spots 796
row,SPOT intensity,Binder
1,158,QLLNPNRRAPRRPLS
2,22,LEFRAILFIPKRAPF
3,7,PELAPKREAPKPPAN

# Target: Bem1-1, P29366
# Sequence (P29366 55-141): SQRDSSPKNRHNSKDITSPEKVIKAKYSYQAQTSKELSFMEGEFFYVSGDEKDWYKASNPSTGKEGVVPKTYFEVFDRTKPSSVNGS
# Experiment: SPOT array
# Settings: median of control spots 4282
row,SPOT intensity,Binder
1,0,QLLNPNRRAPRRPLS
2,3,LEFRAILFIPKRAPF
3,0,PELAPKREAPKPPAN

# Target: Bem1-2, P29366
# Sequence (P29366 139-227): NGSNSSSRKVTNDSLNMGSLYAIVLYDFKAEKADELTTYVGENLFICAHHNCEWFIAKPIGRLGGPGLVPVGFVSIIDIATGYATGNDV
# Experiment: SPOT array
# Settings: median of control spots 4347
row,SPOT intensity,Binder
1,169,QLLNPNRRAPRRPLS
2,1,LEFRAILFIPKRAPF
3,1,PELAPKREAPKPPAN

# Target: T3, Boi1, P38041
# Experiment: SPOT array
# Settings: median of control spots 1162
row,SPOT intensity,Binder
1,5,QLLNPNRRAPRRPLS
2,10,LEFRAILFIPKRAPF
3,1,PELAPKREAPKPPAN

# Target: T4, Boi2, P39969
# Experiment: SPOT array
# Settings: median of control spots 1161
row,SPOT intensity,Binder
1,2,QLLNPNRRAPRRPLS
2,4,LEFRAILFIPKRAPF
3,1,PELAPKREAPKPPAN

# Target: T5, Bud14, P27637
# Experiment: SPOT array
# Settings: median of control spots 956
row,SPOT intensity,Binder
1,11,QLLNPNRRAPRRPLS
2,13,LEFRAILFIPKRAPF
3,0,PELAPKREAPKPPAN

# Target: T6, Bzz1-1, P38822
# Experiment: SPOT array
# Settings: median of control spots 4446
row,SPOT intensity,Binder
1,0,QLLNPNRRAPRRPLS
2,0,LEFRAILFIPKRAPF
3,4,PELAPKREAPKPPAN

# Target: T7, Bzz1-2, P38822
# Experiment: SPOT array
# Settings: median of control spots 4538
row,SPOT intensity,Binder
1,9,QLLNPNRRAPRRPLS
2,0,LEFRAILFIPKRAPF
3,4,PELAPKREAPKPPAN

# Target: T8, Cdc25, P04821
# Experiment: SPOT array
# Settings: median of control spots 969
row,SPOT intensity,Binder
1,16,QLLNPNRRAPRRPLS
2,29,LEFRAILFIPKRAPF
3,0,PELAPKREAPKPPAN

# Target: T9, Cyk3, Q07533
# Experiment: SPOT array
# Settings: median of control spots 1451
row,SPOT intensity,Binder
1,1,QLLNPNRRAPRRPLS
2,1,LEFRAILFIPKRAPF
3,1,PELAPKREAPKPPAN

# Target: T10, Fus1, P11710
# Experiment: SPOT array
# Settings: median of control spots 1200
row,SPOT intensity,Binder
1,1,QLLNPNRRAPRRPLS
2,87,LEFRAILFIPKRAPF
3,0,PELAPKREAPKPPAN

# Target: GST
# Experiment: SPOT array
# Settings: median of control spots 978
row,SPOT intensity,Binder
1,2,QLLNPNRRAPRRPLS
2,0,LEFRAILFIPKRAPF
3,0,PELAPKREAPKPPAN

# Target: T11, Hof1, Q05080
# Experiment: SPOT array
# Settings: median of control spots 4086
row,SPOT intensity,Binder
1,3,QLLNPNRRAPRRPLS
2,5,LEFRAILFIPKRAPF
3,0,PELAPKREAPKPPAN

# Target: T12, Hse1, P38753
# Experiment: SPOT array
# Settings: median of control spots 1727
row,SPOT intensity,Binder
1,20,QLLNPNRRAPRRPLS
2,6,LEFRAILFIPKRAPF
3,0,PELAPKREAPKPPAN

# Target: T13, Lsb1, P53281
# Experiment: SPOT array
# Settings: median of control spots 388
row,SPOT intensity,Binder
1,56,QLLNPNRRAPRRPLS
2,35,LEFRAILFIPKRAPF
3,0,PELAPKREAPKPPAN

# Target: T14, Lsb3, P43603
# Experiment: SPOT array
# Settings: median of control spots 406
row,SPOT intensity,Binder
1,43,QLLNPNRRAPRRPLS
2,26,LEFRAILFIPKRAPF
3,0,PELAPKREAPKPPAN

# Target: T15, Lsb4, P32793
# Experiment: SPOT array
# Settings: median of control spots 397
row,SPOT intensity,Binder
1,35,QLLNPNRRAPRRPLS
2,18,LEFRAILFIPKRAPF
3,2,PELAPKREAPKPPAN

# Target: Myo3, P36006
# Experiment: SPOT array
# Settings: median of control spots 468
row,SPOT intensity,Binder
1,168,QLLNPNRRAPRRPLS
2,34,LEFRAILFIPKRAPF
3,497,PELAPKREAPKPPAN

# Target: T16, Myo5, Q04439
# Experiment: SPOT array
# Settings: median of control spots 471
row,SPOT intensity,Binder
1,13,QLLNPNRRAPRRPLS
2,9,LEFRAILFIPKRAPF
3,262,PELAPKREAPKPPAN

# Target: T17, Nbp2, Q12163
# Experiment: SPOT array
# Settings: median of control spots 357
row,SPOT intensity,Binder
1,1130,QLLNPNRRAPRRPLS
2,53,LEFRAILFIPKRAPF
3,281,PELAPKREAPKPPAN

# Target: T18, Pex13, P80667
# Experiment: SPOT array
# Settings: median of control spots 1341
row,SPOT intensity,Binder
1,21,QLLNPNRRAPRRPLS
2,59,LEFRAILFIPKRAPF
3,0,PELAPKREAPKPPAN

# Target: T19, Pin3, Q06449
# Experiment: SPOT array
# Settings: median of control spots 2171
row,SPOT intensity,Binder
1,30,QLLNPNRRAPRRPLS
2,68,LEFRAILFIPKRAPF
3,0,PELAPKREAPKPPAN

# Target: Rvs167, P39743
# Sequence (P39743 419-482): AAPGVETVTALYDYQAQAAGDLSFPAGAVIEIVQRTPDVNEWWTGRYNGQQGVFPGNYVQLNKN
# Experiment: SPOT array
# Settings: median of control spots 2707
row,SPOT intensity,Binder
1,0,QLLNPNRRAPRRPLS
2,0,LEFRAILFIPKRAPF
3,0,PELAPKREAPKPPAN

# Target: Sho1, P40073
# Sequence (P40073 287-367): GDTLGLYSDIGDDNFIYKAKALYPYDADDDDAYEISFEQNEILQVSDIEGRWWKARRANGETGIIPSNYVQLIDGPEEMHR
# Experiment: SPOT array
# Settings: median of control spots 1148
row,SPOT intensity,Binder
1,50,QLLNPNRRAPRRPLS
2,103,LEFRAILFIPKRAPF
3,0,PELAPKREAPKPPAN

# Target: T20, Sla1-2, P32790
# Experiment: SPOT array
# Settings: median of control spots 712
row,SPOT intensity,Binder
1,3,QLLNPNRRAPRRPLS
2,6,LEFRAILFIPKRAPF
3,0,PELAPKREAPKPPAN

# Target: T21, Sla1-3, P32790
# Experiment: SPOT array
# Settings: median of control spots 5475
row,SPOT intensity,Binder
1,9,QLLNPNRRAPRRPLS
2,8,LEFRAILFIPKRAPF
3,0,PELAPKREAPKPPAN
